Source: patent US20200399394A1
pKd: −log10 of the molar value.

Legend:
[1] = target: human CD39 (ectonucleoside triphosphate diphosphohydrolase 1) (UniProt P49961); test: MSD equilibrium; Fab
[2] = target: human CD39 (ectonucleoside triphosphate diphosphohydrolase 1) (UniProt P49961); test: ForteBio (BLI); IgG, monovalent

pKd [1]: 10.28
pKd [2]: 8.53
Substance: SRF399-C
